Source: the supplement of paper PMC10567573

B1: GAGE1 (parent)
chain: RPRRYVQPPEMIGPMRPEQFSDEV

Variants of: B1
Assay: protein stability index of a GFP-peptide fusion (GPS, HEK-293T) (PSI 1-6); higher = more stable
Conditions: c terminus: a fixed tail appended
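Further: lentivirally expressed fusions sorted by FACS into six bins by GFP to DsRed ratio, PSI derived from sequencing read proportions per bin multiplied by bin number.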

Variant | protein stability index
RPRRYVQYPEMIGPMRPEQFSDEV [P8Y] | 3.52
RPRRYVQKPEMIGPMRPEQFSDEV [P8K] | 3.98
RPRRYVQGPEMIGPMRPEQFSDEV [P8G] | 4.51
RPRRYVQNPEMIGPMRPEQFSDEV [P8N] | 4.22
RPRRYVQDPEMIGPMRPEQFSDEV [P8D] | 4.31
RPRRYVQMPEMIGPMRPEQFSDEV [P8M] | 3.48
RPRRYVQFPEMIGPMRPEQFSDEV [P8F] | 3.41
RPRRYVQCPEMIGPMRPEQFSDEV [P8C] | 3.61
RPRRYVQPFEMIGPMRPEQFSDEV [P9F] | 3.79
RPRRYVQPYEMIGPMRPEQFSDEV [P9Y] | 3.62
RPRRYVQPQEMIGPMRPEQFSDEV [P9Q] | 4.52
RPRRYVQPEEMIGPMRPEQFSDEV [P9E] | 4.71
RPRRYVQPDEMIGPMRPEQFSDEV [P9D] | 4.61
RPRRYVQPKEMIGPMRPEQFSDEV [P9K] | 4.13
RPRRYVQPCEMIGPMRPEQFSDEV [P9C] | 4.24
RPRRYVQPNEMIGPMRPEQFSDEV [P9N] | 3.97
RPRRYVQPIEMIGPMRPEQFSDEV [P9I] | 3.57
RPRRYVQPGEMIGPMRPEQFSDEV [P9G] | 4.46
RPRRYVQPLEMIGPMRPEQFSDEV [P9L] | 4
RPRRYVQPMEMIGPMRPEQFSDEV [P9M] | 3.92
RPRRYVQPREMIGPMRPEQFSDEV [P9R] | 4.36
RPRRYVQPTEMIGPMRPEQFSDEV [P9T] | 4.28
RPRRYVQPWEMIGPMRPEQFSDEV [P9W] | 3.77
RPRRYVQPVEMIGPMRPEQFSDEV [P9V] | 2.61

Variant | protein stability index
RPRRYVQPSEMIGPMRPEQFSDEV [P9S] | 4.29
RPRRYVQPAEMIGPMRPEQFSDEV [P9A] | 3.75
RPRRYVQPHEMIGPMRPEQFSDEV [P9H] | 3.82
RPRRYVQPPEMAGPMRPEQFSDEV [I12A] | 4.42
RPRRYVQPPEMNGPMRPEQFSDEV [I12N] | 4.71
RPRRYVQPPEMGGPMRPEQFSDEV [I12G] | 4.69
RPRRYVQPPEMRGPMRPEQFSDEV [I12R] | 4.35
RPRRYVQPPEMCGPMRPEQFSDEV [I12C] | 4.33
RPRRYVQPPEMSGPMRPEQFSDEV [I12S] | 4.36
RPRRYVQPPEMEGPMRPEQFSDEV [I12E] | 4.57
RPRRYVQPPEMQGPMRPEQFSDEV [I12Q] | 4.62
RPRRYVQPPEMFGPMRPEQFSDEV [I12F] | 3.99
RPRRYVQPPEMLGPMRPEQFSDEV [I12L] | 4.12
RPRRYVQPPEMMGPMRPEQFSDEV [I12M] | 4.39
RPRRYVQPPEMKGPMRPEQFSDEV [I12K] | 4.62
RPRRYVQPPEMTGPMRPEQFSDEV [I12T] | 4.53
RPRRYVQPPEMPGPMRPEQFSDEV [I12P] | 4.31
RPRRYVQPPEMDGPMRPEQFSDEV [I12D] | 4.72
RPRRYVQPPEMYGPMRPEQFSDEV [I12Y] | 3.91
RPRRYVQPPEMWGPMRPEQFSDEV [I12W] | 3.84
RPRRYVQPPEMHGPMRPEQFSDEV [I12H] | 4.3
RPRRYVQPPEMVGPMRPEQFSDEV [I12V] | 4.77
RPRRYVFPPEMIGPMRPEQFSDEV [Q7F] | 3.87
RPRRYVAPPEMIGPMRPEQFSDEV [Q7A] | 3.77

Variant | protein stability index
RPRRYVGPPEMIGPMRPEQFSDEV [Q7G] | 3.3
RPRRYVRPPEMIGPMRPEQFSDEV [Q7R] | 3.29
RPRRYVLPPEMIGPMRPEQFSDEV [Q7L] | 3.85
RPRRYVCPPEMIGPMRPEQFSDEV [Q7C] | 4.04
RPRRYVSPPEMIGPMRPEQFSDEV [Q7S] | 4.24
RPRRYVVPPEMIGPMRPEQFSDEV [Q7V] | 3.57
RPRRYVKPPEMIGPMRPEQFSDEV [Q7K] | 4.02
RPRRYVEPPEMIGPMRPEQFSDEV [Q7E] | 3.86
RPRRYVDPPEMIGPMRPEQFSDEV [Q7D] | 3.8
RPRRYVNPPEMIGPMRPEQFSDEV [Q7N] | 3.64
RPRRYVWPPEMIGPMRPEQFSDEV [Q7W] | 3.73
RPRRYVTPPEMIGPMRPEQFSDEV [Q7T] | 4.01
RPRRYVIPPEMIGPMRPEQFSDEV [Q7I] | 3.63
RPRRYVYPPEMIGPMRPEQFSDEV [Q7Y] | 3.73
RPRRYVPPPEMIGPMRPEQFSDEV [Q7P] | 3.96
RPRRYVMPPEMIGPMRPEQFSDEV [Q7M] | 3.52
RPRRYVHPPEMIGPMRPEQFSDEV [Q7H] | 4.14
RPNRYVQPPEMIGPMRPEQFSDEV [R3N] | 4.07
RPLRYVQPPEMIGPMRPEQFSDEV [R3L] | 2.88
RPPRYVQPPEMIGPMRPEQFSDEV [R3P] | 4.04
RPVRYVQPPEMIGPMRPEQFSDEV [R3V] | 4.03
RPQRYVQPPEMIGPMRPEQFSDEV [R3Q] | 4.11
RPTRYVQPPEMIGPMRPEQFSDEV [R3T] | 4.3
RPWRYVQPPEMIGPMRPEQFSDEV [R3W] | 2.6

Variant | protein stability index
RPSRYVQPPEMIGPMRPEQFSDEV [R3S] | 4.26
RPMRYVQPPEMIGPMRPEQFSDEV [R3M] | 3.89
RPYRYVQPPEMIGPMRPEQFSDEV [R3Y] | 3.1
RPRRPVQPPEMIGPMRPEQFSDEV [Y5P] | 4.32
RPRRSVQPPEMIGPMRPEQFSDEV [Y5S] | 4
RPRRMVQPPEMIGPMRPEQFSDEV [Y5M] | 3.47
RPRRWVQPPEMIGPMRPEQFSDEV [Y5W] | 3.61
RPRRLVQPPEMIGPMRPEQFSDEV [Y5L] | 3.31
RPRRRVQPPEMIGPMRPEQFSDEV [Y5R] | 3.91
RPRRHVQPPEMIGPMRPEQFSDEV [Y5H] | 3.81
RPRRKVQPPEMIGPMRPEQFSDEV [Y5K] | 4.43
RPRREVQPPEMIGPMRPEQFSDEV [Y5E] | 4.55
RPRRGVQPPEMIGPMRPEQFSDEV [Y5G] | 4.49
RPRRAVQPPEMIGPMRPEQFSDEV [Y5A] | 4.38
RPRRVVQPPEMIGPMRPEQFSDEV [Y5V] | 4.41
RPRRFVQPPEMIGPMRPEQFSDEV [Y5F] | 3.78
RPRRDVQPPEMIGPMRPEQFSDEV [Y5D] | 4.22
RPRRNVQPPEMIGPMRPEQFSDEV [Y5N] | 4.17
RPRRCVQPPEMIGPMRPEQFSDEV [Y5C] | 3.2
RPRRIVQPPEMIGPMRPEQFSDEV [Y5I] | 3.31
RPRRQVQPPEMIGPMRPEQFSDEV [Y5Q] | 4.2
RPRRTVQPPEMIGPMRPEQFSDEV [Y5T] | 4.45
